Experimental data taken from patent US20180127505A1, “HUMANIZED ANTI-AXL ANTIBODIES AND THEIR CONJUGATES” (MEDIMMUNE LIMITED, priority 2015, published 2018).

Legend:
[1] = target: T1, human Axl-Strep-His (Homo sapiens, UniProt P30530, Q764R); assay: SPR measurement of antibody affinity, AXL-Strep-His antigen; type: binding; conditions: for affinity for Axl-Strep-His compared with Ab1: SPR; for ka, AXL-Strep-His antigen / kd, AXL-Strep-His antigen / Kd: SPR Biacore T200, 25 C, bivalent ligand model (Ab1: heterogeneous ligand model); for Kd: read-out: KD1, AXL-Strep-His antigen
T1 construct: Strep; His; host or cells: transiently transfected CHO cells
T1 sequence (P30530 26-894 Q764R): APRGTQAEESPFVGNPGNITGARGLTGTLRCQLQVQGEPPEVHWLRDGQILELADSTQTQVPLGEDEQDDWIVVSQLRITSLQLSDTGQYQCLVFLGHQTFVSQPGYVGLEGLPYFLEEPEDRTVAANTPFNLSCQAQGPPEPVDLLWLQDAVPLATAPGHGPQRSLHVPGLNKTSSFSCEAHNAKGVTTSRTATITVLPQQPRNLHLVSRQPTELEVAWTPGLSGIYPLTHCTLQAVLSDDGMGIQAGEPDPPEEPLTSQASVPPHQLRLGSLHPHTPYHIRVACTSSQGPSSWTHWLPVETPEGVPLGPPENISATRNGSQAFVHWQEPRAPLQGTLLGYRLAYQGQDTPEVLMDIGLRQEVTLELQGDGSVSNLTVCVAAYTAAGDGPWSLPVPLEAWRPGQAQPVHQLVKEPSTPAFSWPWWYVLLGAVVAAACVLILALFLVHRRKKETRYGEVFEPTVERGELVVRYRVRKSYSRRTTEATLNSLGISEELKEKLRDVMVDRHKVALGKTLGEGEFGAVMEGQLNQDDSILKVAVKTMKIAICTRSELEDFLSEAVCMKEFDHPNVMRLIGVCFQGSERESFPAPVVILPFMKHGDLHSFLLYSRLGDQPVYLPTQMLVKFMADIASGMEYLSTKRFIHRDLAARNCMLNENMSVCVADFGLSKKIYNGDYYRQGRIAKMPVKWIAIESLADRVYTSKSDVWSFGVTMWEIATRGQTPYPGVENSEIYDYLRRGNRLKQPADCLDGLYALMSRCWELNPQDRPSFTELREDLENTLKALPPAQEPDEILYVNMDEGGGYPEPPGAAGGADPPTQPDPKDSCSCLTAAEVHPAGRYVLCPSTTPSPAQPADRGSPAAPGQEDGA
Description: (§1) Protocol 4A: SPR Measurement of Antibody Affinity
(§2) • 1. Sensor Chip CM5 Biacore; Cat. # BR-1000-14 • 2. Amine Coupling Kit (EDC, NHS, ethanolamine-HCl) Biacore; Cat. # BR-1000-50 • 3. Immobilization buffer (10 mM Na acetate, pH 4.0) Biacore; Cat. # BR-1003-49 • 4. 50 mM NaOH Biacore; Cat. # BR-1003-58 • 5. Running buffer (PBS/Tween20 0.05% v/v) • 6. Biacore T200 GE Healthcare • 7. Regeneration solution: 10 mM HCl, 1 M NaCl
(§3) • Activate flow cell 2 with NHS-EDC 420s at 5 μl/min, then inject human AxI-Strep-His (Evitria) (10 μg/mL in 10 mM sodium acetate, pH 4.0) to achieve a coupling of […]. Block with ethanolamine for 420s. Repeat the process for flow cell 1 but with no antigen to create a reference flow cell. 12RU AXL fusion protein was coated. • For the Fc fusion, Human Axl-Fc chimera (R&D Systems #154-AL) (5 μg/mL in 10 mM sodium acetate, pH 4.5) was used with the above protocol. 16RU of AXL-Fc was coated. Protocol with AXL-Strep-His Antigen • Serial 10x dilutions of antibody, from 3000 nM, were made in PBS/Tween20. 2x regeneration cycles were used with 10 mM HCl, 1 M NaCl for 30s at 30 μl/min for both cycles. Start-up solution was PBS/Tween20 and set to 3 cycles. • Sample injection parameters were 120s at 30 μl/min, with 600s dissociation time. • Prime and normalise detector were run before sample application with experimental conditions 25 C and sample storage at 4 C. • Kinetic analysis used BIAevaluation software with bivalent ligand binding model. For chimeric 1H12 with AXL-Strep-His, “heterogeneous ligand” binding model was used due to poor fit with bivalent or monovalent algorithms. • Each antibody dilution was injected twice. Protocol with AXL-Fc Chimera Antigen • The above protocol was used except that the running buffer was HBSEP+, serial 10x dilutions of antibody were from 500 nM in HBSEP+ running buffer and were injected for 180 sec. • Analysis used BIAevaluation software with the bivalent binding model.

[2] = target: T2, Human Axl-Fc chimera (Homo sapiens, UniProt P30530); assay: SPR measurement of antibody affinity, AXL-Fc chimera antigen; type: binding; conditions: for Kd / ka, AXL-Fc antigen / kd, AXL-Fc antigen: HBSEP+ running buffer, bivalent binding model
T2 construct: purchased R&D Systems 154-AL
Description: as §1, §2, §3

[3] = Protein thermal shift (Tm); type: physicochemical; conditions: 0.5 mg/mL in PBS, HEK293F expression product
Description: Protocol 6: Protein Thermal Shift Protocol
• 96 well optical plate semi-skirted (Starlab cat.L1402-9700). • Protein thermal shift dye kit (Life Technologies cat.446148). • Microamp optical adhesive film (Applied Biosystems) • 7500 Real-Time PCR System (Life Technologies) • Test items: Antibodies from Evitria and Spirogen • Protein thermal shift v1.2 software (Life Technologies)
Protein thermal shift dye (2.5 μL 1:1000 dilution) was added to sample proteins (17.5 μL of 0.5 mg/mL in PBS) in a 96 well optical plate and mixed thoroughly. Every sample was done in quadruplicate. The plate was sealed with a optical adhesive film and bubbles in the wells were removed by centrifugation 1 min at 500 g, then placed on ice. The sealed plate was introduced in the 7500 Real-Time PCR System and subsequently the experiment was set up as follows:
Data analysis and derivation of Tm data were done using the software following the manufacturers instructions.

T2 sequence (P30530 with tags, fused parts or gaps isoform P30530-2 limits assumed): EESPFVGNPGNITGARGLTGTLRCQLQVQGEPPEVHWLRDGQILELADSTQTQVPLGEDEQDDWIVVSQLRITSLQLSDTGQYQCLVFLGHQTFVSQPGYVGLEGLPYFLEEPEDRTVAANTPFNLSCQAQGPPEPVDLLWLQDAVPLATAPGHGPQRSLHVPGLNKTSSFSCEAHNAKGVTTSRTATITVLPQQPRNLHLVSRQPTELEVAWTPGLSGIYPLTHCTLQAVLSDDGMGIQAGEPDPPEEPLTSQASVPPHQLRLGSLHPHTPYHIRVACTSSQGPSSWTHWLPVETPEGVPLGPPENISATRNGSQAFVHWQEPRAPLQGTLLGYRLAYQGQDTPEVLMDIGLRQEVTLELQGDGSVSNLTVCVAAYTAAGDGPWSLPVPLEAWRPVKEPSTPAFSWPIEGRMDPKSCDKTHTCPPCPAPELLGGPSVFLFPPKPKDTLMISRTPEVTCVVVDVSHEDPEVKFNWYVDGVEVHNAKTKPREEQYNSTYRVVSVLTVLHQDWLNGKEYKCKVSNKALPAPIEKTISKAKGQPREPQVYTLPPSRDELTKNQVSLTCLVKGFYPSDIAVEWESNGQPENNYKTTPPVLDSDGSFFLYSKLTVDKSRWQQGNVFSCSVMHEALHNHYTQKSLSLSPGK

Molecule	affinity for Axl-Strep-His compared with Ab1 [1]	ka, AXL-Strep-His antigen [1]	kd, AXL-Strep-His antigen [1]	Kd [1]	affinity for Axl-Fc compared with Ab1 [2]	Kd [2]	ka, AXL-Fc antigen [2]	kd, AXL-Fc antigen [2]	Tm [3]
Ab2: anti-AXL antibody, VH SEQ ID NO. 2, VL SEQ ID NO. 5, constant region derived from human antibodies (antibody, V domains shown, human constant regions; Synthetic heavy chain variable region 1H12RHA; Synthetic light chain variable region 1H12RKA, 5, constant region derived from human antibodies) VH: MGFKMESQFQVFVFVFLWLSGVDGQVQLVESGGGVVQPGRSLRLSCAASGFTFSSYGMSVRQAPGKGLEWVATISSGGSYTYYPDSVKGRFTISRDNSKNTLYLQMNSLRAEDTAVYYCARHPIYYTYDDTMDYWGQGTTVTVSS VL: MGFKMESQFQVFVFVFLWLSGVDGEIVLTQSPATLSLSPGERATLSCSASSSVSSGNFHWYQQKPGLAPRLLIYRTSNLASGIPDRFSGSGSGTDFTLTISRLEPEDFAVYYCQQWSGYPWTFGPGTKVDIK	higher affinity	13200 M⁻¹ s⁻¹	0.000441 s⁻¹	33.4 nM	higher affinity	1.84 nM	83700 M⁻¹ s⁻¹	0.000154 s⁻¹	59.71 °C
Ab3: anti-AXL antibody, VH SEQ ID NO. 2, VL SEQ ID NO. 7, constant region derived from human antibodies (antibody, V domains shown, human constant regions; Synthetic heavy chain variable region 1H12RHA; Synthetic light chain variable region 1H12RKB, 7, constant region derived from human antibodies) VH: MGFKMESQFQVFVFVFLWLSGVDGQVQLVESGGGVVQPGRSLRLSCAASGFTFSSYGMSVRQAPGKGLEWVATISSGGSYTYYPDSVKGRFTISRDNSKNTLYLQMNSLRAEDTAVYYCARHPIYYTYDDTMDYWGQGTTVTVSS VL: MGFKMESQFQVFVFVFLWLSGVDGEIVLTQSPGTLSLSPGERATLSCSASSSVSSGNFHWYQQKPGLAPRLLIYRTSNLASGIPARFSGSGSGTDFTLTISSLEPEDFAVYYCQQWSGYPWTFGGGTKLEIK	higher affinity	19200 M⁻¹ s⁻¹	0.000636 s⁻¹	33.1 nM	–	8.5 nM	24500 M⁻¹ s⁻¹	0.0002 s⁻¹	62.05 °C
Ab4: anti-AXL antibody, VH SEQ ID NO. 3, VL SEQ ID NO. 5, constant region derived from human antibodies (antibody, V domains shown, human constant regions; Synthetic heavy chain variable region 1H12RHB; Synthetic light chain variable region 1H12RKA, 5, constant region derived from human antibodies) VH: MGFKMESQFQVFVFVFLWLSGVDGEVQLVESGGGLVQPGGSLRLSCAASGFTFSSYGMSWVRQAPGKGLEWVATISSGGSYTYYPDSVKGRFTISRDNAKNSLYLQMNSLRAEDTAVYYCARHPIYYTYDDTMDYWGQGTLVTVSS VL: MGFKMESQFQVFVFVFLWLSGVDGEIVLTQSPATLSLSPGERATLSCSASSSVSSGNFHWYQQKPGLAPRLLIYRTSNLASGIPDRFSGSGSGTDFTLTISRLEPEDFAVYYCQQWSGYPWTFGPGTKVDIK	–	9759 M⁻¹ s⁻¹	0.00059 s⁻¹	–	higher affinity	–	290000 M⁻¹ s⁻¹	0.000396 s⁻¹	60.32 °C
Ab5: anti-AXL antibody, VH SEQ ID NO. 3, VL SEQ ID NO. 7, constant region derived from human antibodies (antibody, V domains shown, human constant regions; Synthetic heavy chain variable region 1H12RHB; Synthetic light chain variable region 1H12RKB, 7, constant region derived from human antibodies) VH: MGFKMESQFQVFVFVFLWLSGVDGEVQLVESGGGLVQPGGSLRLSCAASGFTFSSYGMSWVRQAPGKGLEWVATISSGGSYTYYPDSVKGRFTISRDNAKNSLYLQMNSLRAEDTAVYYCARHPIYYTYDDTMDYWGQGTLVTVSS VL: MGFKMESQFQVFVFVFLWLSGVDGEIVLTQSPGTLSLSPGERATLSCSASSSVSSGNFHWYQQKPGLAPRLLIYRTSNLASGIPARFSGSGSGTDFTLTISSLEPEDFAVYYCQQWSGYPWTFGGGTKLEIK	higher affinity	18900 M⁻¹ s⁻¹	0.000435 s⁻¹	–	–	–	20600 M⁻¹ s⁻¹	0.000159 s⁻¹	63.06 °C
Ab1 (antibody, V domains shown) VH: EVQLVESGGDLVKPGGSLKLSCAASGFTFSSYGMSWVRQTPDKRLEWVATISSGGSYTYYPDSVKGRFTISRDNAKNTLYLQMSSLKSEDTAMYYCARHPIYYTYDDTMDYWGQGTSVTVSS VL: ENVLTQSPAIMAASPGEKVTMTCSASSSVSSGNFHWYQQKPGTSPKLWIYRTSNLASGVPARFSGSGSGTSYSLTISSMEAEDAATYYCQQWSGYPWTFGGGTKLEIK	–	13100 M⁻¹ s⁻¹	0.000533 s⁻¹	–	–	–	30900 M⁻¹ s⁻¹	0.000142 s⁻¹	69.52 °C
